# Patent publication US20130251642A1 (US Dept. of Health and Human Services, published 2013)
# Key:
# [1] = biological target: T1, Fc-hROR1 (the three extracellular domains of human ROR1 fused to the Fc domain of human IgG1) (human, UniProt Q01973 30-406); test: SPR on immobilized Fc-hROR1; bivalent IgG1 Y31 against monovalent Fab Y31
# T1 construct: extracellular domain; also called human ROR1 (Fc-hROR1); not shown: Fc domain of human IgG1
# cell surface human ROR1 [2] = biological target: T2, cell surface human ROR1 (human, UniProt Q01973 30-937); test: flow cytometry on primary CLL cells of one patient, IgG1 at 5 µg/mL
# T2 construct: whole, on cells; The cell type of each entry is named under assay; also called HEK 293F/hROR1; HEK 293F cells stably transfected with human ROR1
# T2 sequence (Q01973 30-937): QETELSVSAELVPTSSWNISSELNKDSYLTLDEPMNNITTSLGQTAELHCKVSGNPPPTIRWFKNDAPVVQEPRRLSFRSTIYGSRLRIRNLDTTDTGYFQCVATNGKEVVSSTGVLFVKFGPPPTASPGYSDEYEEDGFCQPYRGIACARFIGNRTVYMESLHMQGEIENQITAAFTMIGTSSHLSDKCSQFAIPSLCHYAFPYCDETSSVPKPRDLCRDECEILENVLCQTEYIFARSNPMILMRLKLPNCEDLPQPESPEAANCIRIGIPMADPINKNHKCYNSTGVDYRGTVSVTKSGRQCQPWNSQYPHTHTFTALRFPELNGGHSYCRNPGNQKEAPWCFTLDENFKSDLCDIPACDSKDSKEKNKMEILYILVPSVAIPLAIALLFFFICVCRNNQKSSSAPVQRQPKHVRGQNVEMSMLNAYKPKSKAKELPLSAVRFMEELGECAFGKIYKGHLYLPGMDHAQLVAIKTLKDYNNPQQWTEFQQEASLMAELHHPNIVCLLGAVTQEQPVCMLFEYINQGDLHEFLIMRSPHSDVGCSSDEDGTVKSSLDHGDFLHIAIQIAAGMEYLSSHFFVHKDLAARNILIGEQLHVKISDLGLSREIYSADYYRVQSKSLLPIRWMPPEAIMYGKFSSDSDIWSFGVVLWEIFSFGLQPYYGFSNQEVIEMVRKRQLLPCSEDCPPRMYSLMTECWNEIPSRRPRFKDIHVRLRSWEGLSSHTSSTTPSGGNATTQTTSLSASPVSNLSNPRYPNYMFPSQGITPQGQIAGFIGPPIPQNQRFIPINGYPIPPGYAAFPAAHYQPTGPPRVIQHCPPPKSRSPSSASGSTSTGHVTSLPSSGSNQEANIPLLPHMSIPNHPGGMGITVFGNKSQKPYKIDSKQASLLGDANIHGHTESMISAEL
# Fc-hROR1kr [3] = biological target: T3, Fc-hROR1kr (human, UniProt Q01973 312-391); test: ELISA, Fc fusion of one or two domains of human ROR1 immobilized, antibody in IgG1 format, absorbance at 405 nm
# T3 construct: domain: Kringle; not shown: Fc domain (human IgG1 Fc is stated for Fc-hROR1; not restated for this construct)
# T3 sequence (Q01973 312-391): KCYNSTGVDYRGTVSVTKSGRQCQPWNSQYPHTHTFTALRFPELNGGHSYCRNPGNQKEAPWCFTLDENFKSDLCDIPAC
# Fc-hROR1ig+fz = biological target: T4, Fc-hROR1ig+fz (human, UniProt Q01973 30-299, limits assumed); test: as above
# T4 construct: domain: Ig and Frizzled; not shown: Fc domain (human IgG1 Fc is stated for Fc-hROR1; not restated for this construct)
# T4 sequence (Q01973 30-299 limits assumed): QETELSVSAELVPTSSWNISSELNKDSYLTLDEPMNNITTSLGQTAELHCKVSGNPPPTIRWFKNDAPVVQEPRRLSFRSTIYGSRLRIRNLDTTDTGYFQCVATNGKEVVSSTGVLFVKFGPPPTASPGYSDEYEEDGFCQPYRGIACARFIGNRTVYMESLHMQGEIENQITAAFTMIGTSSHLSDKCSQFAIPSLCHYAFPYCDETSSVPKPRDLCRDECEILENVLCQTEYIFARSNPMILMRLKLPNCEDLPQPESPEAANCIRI
# Fc-hROR1ig [4] = biological target: T5, Fc-hROR1ig (human, UniProt Q01973 30-147, limits assumed); test: as above
# T5 construct: domain: Ig; not shown: Fc domain (human IgG1 Fc is stated for Fc-hROR1; not restated for this construct)
# T5 sequence (Q01973 30-147 limits assumed): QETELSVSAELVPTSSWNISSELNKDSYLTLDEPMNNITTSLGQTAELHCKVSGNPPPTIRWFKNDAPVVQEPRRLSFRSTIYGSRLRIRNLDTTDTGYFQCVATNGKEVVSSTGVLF
# cell surface human ROR1 [5] = biological target: T2, cell surface human ROR1; test: flow cytometry on primary CLL cells of one patient, IgG1 at 1 µg/mL
# Fc-hROR1kr [6] = biological target: T3, Fc-hROR1kr; test: ELISA on immobilized Fc-hROR1kr (Fab data not shown)
# Fc-hROR1ig [7] = biological target: T5, Fc-hROR1ig; test: ELISA on immobilized Fc-hROR1ig (Fab data not shown)
# cell surface human ROR1 [8] = biological target: T2, cell surface human ROR1; test: flow cytometry on primary CLL cells of one patient, IgG1 at 0.1 µg/mL
# [9] = biological target: T1, Fc-hROR1 (the three extracellular …); test: SPR on immobilized Fc-hROR1; bivalent IgG1 R12 against monovalent Fab R12
# Fc-hROR1fz+kr = biological target: T6, Fc-hROR1fz+kr (human, UniProt Q01973 165-406, limits assumed); test: ELISA, Fc fusion of one or two domains of human ROR1 immobilized, antibody in IgG1 format, absorbance at 405 nm
# T6 construct: domain: Frizzled and Kringle; also called Fc-hROR1kr+fz; Fc-ROR1fz+kr; not shown: Fc domain (human IgG1 Fc is stated for Fc-hROR1; not restated for this construct)
# T6 sequence (Q01973 165-406 limits assumed): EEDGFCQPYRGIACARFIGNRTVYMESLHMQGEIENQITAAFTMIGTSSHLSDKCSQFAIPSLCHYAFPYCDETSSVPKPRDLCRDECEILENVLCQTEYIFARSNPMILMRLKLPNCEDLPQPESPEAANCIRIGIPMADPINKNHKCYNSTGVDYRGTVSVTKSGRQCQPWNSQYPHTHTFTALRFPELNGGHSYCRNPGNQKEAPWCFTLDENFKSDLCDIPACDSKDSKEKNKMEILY
# [10] = biological target: T7, Fc-mROR1 (mouse analogue of Fc-hROR1) (mouse, UniProt Q9Z139 30-406); test: ELISA, antigen immobilized, antibody in IgG1 format, absorbance at 405 nm
# T7 construct: extracellular domain; also called mouse ROR1 (Fc-mROR1); not shown: Fc domain (human IgG1 Fc is stated for Fc-hROR1; not restated for this construct)
# T7 sequence (Q9Z139 30-406): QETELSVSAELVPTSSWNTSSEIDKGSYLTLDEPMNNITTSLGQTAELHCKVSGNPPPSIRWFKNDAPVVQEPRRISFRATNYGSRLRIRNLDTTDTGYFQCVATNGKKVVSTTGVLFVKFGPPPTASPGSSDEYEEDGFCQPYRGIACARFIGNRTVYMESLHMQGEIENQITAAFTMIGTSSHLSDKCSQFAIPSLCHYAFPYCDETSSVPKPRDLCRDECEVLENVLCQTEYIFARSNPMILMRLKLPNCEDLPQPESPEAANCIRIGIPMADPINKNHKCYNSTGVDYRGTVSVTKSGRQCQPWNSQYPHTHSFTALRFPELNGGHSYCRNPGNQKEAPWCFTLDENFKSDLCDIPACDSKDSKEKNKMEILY
# [11] = biological target: T7, Fc-mROR1 (mouse analogue of Fc-hROR1); test: SPR (Biacore X100), Fc-mROR1 immobilized on CM5 chip
# [12] = biological target: T1, Fc-hROR1 (the three extracellular …); test: SPR on immobilized Fc-hROR1; bivalent IgG1 R11 against monovalent Fab R11
# Fc-hROR1fz = biological target: T8, Fc-hROR1fz (human, UniProt Q01973 165-299, limits assumed); test: ELISA, Fc fusion of one or two domains of human ROR1 immobilized, antibody in IgG1 format, absorbance at 405 nm
# T8 construct: domain: Frizzled; not shown: Fc domain (human IgG1 Fc is stated for Fc-hROR1; not restated for this construct)
# T8 sequence (Q01973 165-299 limits assumed): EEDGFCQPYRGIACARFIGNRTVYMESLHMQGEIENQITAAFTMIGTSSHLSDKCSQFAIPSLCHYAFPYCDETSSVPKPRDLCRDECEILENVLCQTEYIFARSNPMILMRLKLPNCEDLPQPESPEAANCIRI
# [13] = biological target: T9, hROR2-Fc (commercially available, R&D Systems) (human, UniProt Q01974 34-403); test: ELISA, antigen immobilized, antibody in IgG1 format, absorbance at 405 nm
# T9 construct: Bought from R&D Systems; also called human ROR2 (hROR2-Fc); not shown: Fc part of the bought fusion
# T9 sequence (Q01974 34-403 limits assumed): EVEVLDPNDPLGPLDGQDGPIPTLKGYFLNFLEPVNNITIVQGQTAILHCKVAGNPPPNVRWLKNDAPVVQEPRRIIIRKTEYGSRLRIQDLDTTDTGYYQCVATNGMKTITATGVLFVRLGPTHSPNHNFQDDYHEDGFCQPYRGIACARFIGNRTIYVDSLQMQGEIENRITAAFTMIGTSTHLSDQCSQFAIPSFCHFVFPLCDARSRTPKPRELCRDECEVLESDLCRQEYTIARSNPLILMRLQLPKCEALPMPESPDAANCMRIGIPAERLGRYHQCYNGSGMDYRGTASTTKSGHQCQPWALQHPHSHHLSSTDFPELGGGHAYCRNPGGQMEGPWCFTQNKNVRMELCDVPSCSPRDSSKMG
# [14] = biological target: T9, hROR2-Fc (commercially available, R&D …); test: ELISA on immobilized hROR2-Fc (Fab data not shown)
# T1 sequence (Q01973 30-406): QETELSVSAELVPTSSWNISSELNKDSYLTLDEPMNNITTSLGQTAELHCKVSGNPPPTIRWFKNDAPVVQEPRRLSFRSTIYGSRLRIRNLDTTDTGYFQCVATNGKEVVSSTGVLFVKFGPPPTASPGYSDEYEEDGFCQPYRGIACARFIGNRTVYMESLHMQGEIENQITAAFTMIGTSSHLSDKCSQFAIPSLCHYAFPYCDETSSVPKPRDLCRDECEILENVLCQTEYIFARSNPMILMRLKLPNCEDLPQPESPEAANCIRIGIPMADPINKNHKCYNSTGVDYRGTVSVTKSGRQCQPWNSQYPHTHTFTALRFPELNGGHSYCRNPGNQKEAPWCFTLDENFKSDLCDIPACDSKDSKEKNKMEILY
MFI (cell surface human ROR1 [2]) [MFI],binding result (Fc-hROR1kr [3]),binding result (Fc-hROR1ig+fz),binding result (Fc-hROR1ig [4]),MFI (cell surface human ROR1 [5]) [MFI],binding result (Fc-hROR1kr [6]),binding result (Fc-hROR1ig [7]),MFI (cell surface human ROR1 [8]) [MFI],Binder,other results
21.6,no binding (tested: not given),no binding (tested: not given),no binding (tested: not given),8.3,–,–,–,"chimeric rabbit/human IgG1 Y31 (antibody, V domains shown, IgG1 format from vector PIGG (human gamma 1 heavy and kappa light constant regions), made in HEK 293F cells; Biotinylated for flow cytometry; also called mAb Y31) VH: QSLEESGGRLVTPGTPLTLTCTVSGIDLNSHWMSWVRQAPGKGLEWIGIIAASGSTYYANWAKGRFTISKTSTTVDLRIASPTTEDTATYFCARDYGDYRLVTFNIWGPGTLVTVSS VL: ELVMTQTPSSVSAAVGGTVTINCQASQSIGSYLAWYQQKPGQPPKLLIYYASNLASGVPSRFSGSGSGTEYTLTISGVQREDAATYYCLGSLSNSDNVFGGGTELEIL","factor of increase of virtual affinity, IgG1 against Fab [1]: 12 fold"
–,–,–,–,–,no binding,no binding,–,"chimeric rabbit/human Fab Y31 (Fab, V domains shown, Fab with human C kappa and human CH1; SPR: purified Fab-(His)6) VH: QSLEESGGRLVTPGTPLTLTCTVSGIDLNSHWMSWVRQAPGKGLEWIGIIAASGSTYYANWAKGRFTISKTSTTVDLRIASPTTEDTATYFCARDYGDYRLVTFNIWGPGTLVTVSS VL: ELVMTQTPSSVSAAVGGTVTINCQASQSIGSYLAWYQQKPGQPPKLLIYYASNLASGVPSRFSGSGSGTEYTLTISGVQREDAATYYCLGSLSNSDNVFGGGTELEIL",–
122,no binding (tested: not given),–,no binding (tested: not given),97.9,–,–,89.4,"chimeric rabbit/human IgG1 R12 (antibody, V domains shown, IgG1 format from vector PIGG; The light chain is rabbit V lambda and human C kappa; the heavy chain has the human gamma 1 constant region; Made in HEK 293F cells; Biotinylated for flow cytometry; also called mAb R12) VH: QEQLVESGGRLVTPGGSLTLSCKASGFDFSAYYMSWVRQAPGKGLEWIATIYPSSGKTYYATWVNGRFTISSDNAQNTVDLQMNSLTAADRATYFCARDSYADDGALFNIWGPGTLVTISS VL: ELVLTQSPSVSAALGSPAKITCTLSSAHKTDTIDWYQQLQGEAPRYLMQVQSDGSYTKRPGVPDRFSGSSSGADRYLIIPSVQADDEADYYCGADYIGGYVFGGGTQLTVTG","factor of increase of virtual affinity, IgG1 against Fab [9]: 5 fold; binding result (Fc-hROR1fz+kr): no binding (tested: not given); binding result [10]: no binding (tested: not given)"
–,–,–,–,–,no binding,no binding,–,"chimeric rabbit/human Fab R12 (Fab, V domains shown, The light chain is rabbit V lambda with human C kappa; SPR: purified Fab-(His)6) VH: QEQLVESGGRLVTPGGSLTLSCKASGFDFSAYYMSWVRQAPGKGLEWIATIYPSSGKTYYATWVNGRFTISSDNAQNTVDLQMNSLTAADRATYFCARDSYADDGALFNIWGPGTLVTISS VL: ELVLTQSPSVSAALGSPAKITCTLSSAHKTDTIDWYQQLQGEAPRYLMQVQSDGSYTKRPGVPDRFSGSSSGADRYLIIPSVQADDEADYYCGADYIGGYVFGGGTQLTVTG",binding result [11]: no binding (tested: 1.5 to 100 nM)
64.9,–,no binding (tested: not given),no binding (tested: not given),18.1,–,–,6.6,"chimeric rabbit/human IgG1 R11 (antibody, V domains shown, IgG1 format from vector PIGG (human gamma 1 heavy and kappa light constant regions), four polypeptide chains, made in HEK 293F cells; Biotinylated for flow cytometry; also called IgG1 11; mAb R11) VH: QSVKESEGDLVTPAGNLTLTCTASGSDINDYPISWVRQAPGKGLEWIGFINSGGSTWYASWVKGRFTISRTSTTVDLKMTSLTTDDTATYFCARGYSTYYCDFNIWGPGTLVTISS VL: ELVMTQTPSSTSGAVGGTVTINCQASQSIDSNLAWFQQKPGQPPTLLIYRASNLASGVPSRFSGSRSGTEYTLTISGVQREDAATYYCLGGVGNVSYRTSFGGGTEVVVK","factor of increase of virtual affinity, IgG1 against Fab [12]: 14 fold; binding result (Fc-hROR1fz): no binding (tested: not given); binding result [13]: no binding (tested: not given)"
–,–,–,–,–,–,–,–,"chimeric rabbit/human Fab R11 (Fab, V domains shown, Fab with human C kappa and human CH1; For SPR it was the purified Fab-(His)6 from pET11a (HA tag removed, C-terminal His6)) VH: QSVKESEGDLVTPAGNLTLTCTASGSDINDYPISWVRQAPGKGLEWIGFINSGGSTWYASWVKGRFTISRTSTTVDLKMTSLTTDDTATYFCARGYSTYYCDFNIWGPGTLVTISS VL: ELVMTQTPSSTSGAVGGTVTINCQASQSIDSNLAWFQQKPGQPPTLLIYRASNLASGVPSRFSGSRSGTEYTLTISGVQREDAATYYCLGGVGNVSYRTSFGGGTEVVVK",binding result [14]: no binding
